The text below walks through data of the RNAGym collection of RNA variant scans (doi:10.1073/pnas.2313332121).

To fix the notation:
B1: TPR t1 (parent)
chain: GACCAAUCUGCCCUCAGAGCUCGAGAACAUCUUCGGAUGCAGAGGAGGCAGGCUUCGGUGGCGCGAUAGCGCCAACGUCCUCAACCUCCAAUGCAUCCCACCACAUGAUGAUGCCUGAAGAGCCUUGGUUUUUUG

In the series the parent is B1. The series can be described thus: polymerase ribozyme fitness, log enrichment relative to wild type (log ratio); higher = more active; in vitro selection for triplet polymerase activity. A digest of the protocol:
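Both subunits of a heterodimeric triplet polymerase ribozyme were given their own mutant library, built by PCR and transcribed. Each library was annealed with a biotinylated primer, the partner subunit and triplets, incubated frozen at −7 °C, and its extended constructs gel-excised, captured on streptavidin beads and amplified by RT-PCR, all in one round done in triplicate. Fitness is the logarithm of genotype enrichment relative to wild-type enrichment, with replicates averaged by inverse-variance weighting. That logarithm is base 2, and Illumina-sequenced genotypes needed ≥10 input reads and ≥1 read per output.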
In the case of G17C C56U C89U, the “polymerase ribozyme fitness (log ratio)” value is -3.95.
As for A18C G19A C85U G120A, the figure is -3.39.
With A16U G117U C123A the figure was -4.24.
With G17A U131A the figure was -1.99; with G17A C89U, -3.72.
In the case of G17A C89G, the “polymerase ribozyme fitness (log ratio)” value is -3.97.
In the case of A18C C40U C73U, the “polymerase ribozyme fitness (log ratio)” value is -2.05.
For the variant G17C C62U, the “polymerase ribozyme fitness (log ratio)” value is -4.67.
As for G17C G69U C79G, the figure is -4.17; as for G17A U21A G36U A41U A84C C97U C124A, -6.13; as for G17C C20G C73A C88U C99A A100C, -4.19.
With A18C C53G C76U the figure was -3.42; with A18C G48A, -2.74; with G17A A41C A43U G44C, -5.92.
As for G17A U78C C94U, the figure is -3.74; as for G17C A18C A43U C89U, -2.92; as for G17A U112A, -1.5.
Turning to A18C C22U C40U G71U A118U, the “polymerase ribozyme fitness (log ratio)” value is -6.12.
With G17U A18G C56G A84G U131G the figure was -5.98.
With A16U G61C G117C C124G the figure was -4.49; with G17A G25A G51C C53G A111C, -6.66.
As for G17A G69U A118G, the figure is 0.157.
For the variant A18C G19A G71U C104U C115A, the “polymerase ribozyme fitness (log ratio)” value is -0.527.
With A16U U55A U81A A84C U132A the figure was -2.61; with G17A A90C A95G C104U A119U, -3; with G17U A43U A119U, -5.06.
As for G17U G47A C49U C53U C72U, the figure is -4; as for A16U G52A, -2.03; as for A18C G71C A121C C123U C124U, -3.96.
With G17A G77A the figure was -3.49.
On to A18C G113C, for which the “polymerase ribozyme fitness (log ratio)” value is -3.55.
As for A18C G48U C56U A84G, the figure is -4.19; as for G17A G93A A121C, -1.03; as for A18C G77C, -2.76.
With A16U G48U C62G C85A the figure was -3.66.
With A16U G45A A90G U96A U112G A118C the figure was -3.03.
In the case of G17C A43U G61A U87G G120C, the “polymerase ribozyme fitness (log ratio)” value was -1.48.
With G17A C72U C114U the figure was -5.33.
As for A18C G42C G47A, the figure is -2.35.
With G17U G51A A121U the figure was -3.76.
As for G17A G44U C49U U55G, the “polymerase ribozyme fitness (log ratio)” value is -4.05.
As to G17C A29G, the “polymerase ribozyme fitness (log ratio)” value was -4.75.
As for G17C A29U, the figure is -6.04.
With G17U A83U C123G the figure was -1.3; with G17A A74U, -4.06.
With G17C G39A C64U the figure was -4.45; with A18C U21A C72G G93C, -4.4.
Consider A18C G42U A46G G47A C86U, for which the “polymerase ribozyme fitness (log ratio)” value is -2.
With A18C C56G C124A the figure was -0.202; with G17U G117A, -3.31.
A18C C72G U78C C104A C114G: the “polymerase ribozyme fitness (log ratio)” value was -3.63.
With A16U G52U A111C U126G G127U the figure was -2.8; with G17A G120C G127U, -1.24; with A16U G58A C62A, -3.9.
For G17A U132A, the “polymerase ribozyme fitness (log ratio)” value was -2.35.
As for G17U U55C, the figure is -2.57.
With A18C C20G G47U G48U the figure was -4.66; with A18G A43U G71A, -4.88; with G17U G120C, -1.09.
Take G17U G69U: the “polymerase ribozyme fitness (log ratio)” value is -0.0598.
With G17A A27C G57C C73A G93U G113C A118C U125A the figure was -7.69.
As for G17U A83G, the figure is -2.64; as for G17A C70A, -4.58.
With G17U G48U C56A U78C U87G U112A the figure was -3.06.
In the case of G17U G61A, the “polymerase ribozyme fitness (log ratio)” value was -2.18.
On to G17U C34A C124G U133A, for which the “polymerase ribozyme fitness (log ratio)” value was -2.78.
As for G17U C56U, the “polymerase ribozyme fitness (log ratio)” value is -2.12.
With G17U C56G the figure was -3.08.
With G17A C28G G48A U96G A100G U112G A121C the figure was -6.43.
As for A18C A74C A84C C115U, the figure is -1.56; as for G17U C85A, -3.6; as for G17A A91C C124A U132A, -0.557.
As for G17C U116G C124A, the “polymerase ribozyme fitness (log ratio)” value is -2.05.
With G17C A43G C101A C104A U106A U112G U126C the figure was -6.47.
With A18C U78C the figure was -1.87.
With G17A A84U the figure was -2.87.
For the variant A18C U92C G117A G120U U129A, the “polymerase ribozyme fitness (log ratio)” value is -5.88.
As for G17C G42U C94U U106A, the figure is -5.2; as for G17A C72G U96A, -4.81.
As for G17A G61A C64U C73U A75C, the figure is -4.03.
Consider A18C C64U, for which the “polymerase ribozyme fitness (log ratio)” value was -2.61.
With A18C C72G C89G C114A U130A the figure was -4.03; with G17U G44U C49G, -5.1.
As for G17A U78A G117A, the figure is -2.6; as for G17U A43U, -3.34; as for A16U G69U C80G A90C, -6.49.
With G17U C82G the figure was -2.98; with G17A C73A G120C G135A, -1.5.
For the variant G17C C49A, the “polymerase ribozyme fitness (log ratio)” value is -4.92.
With G17U G52U A83G C85U G120U the figure was -3.18.
With G17A C85U A91C A108G A111C C124U the figure was -6.83.
With A16U G47U G52A the figure was -4.24; with G17U C64U, -2.46; with G17A G23A C64A C102G U109A, -6.59.
A16U G52C G71U G117C A118G U126A: the “polymerase ribozyme fitness (log ratio)” value was -6.61.
With G17U A37U G60A the figure was -2.43; with G17C C20A, -5.15; with G17A U55C G61U G113A U130C, -5.74.
Regarding A18C U106A, the “polymerase ribozyme fitness (log ratio)” value was -3.06.
As for G17U U78C C114G, the figure is -5.37.
With G17A G47U U54C G71C G77U G117C the figure was -8.04; with G17C U87A, -3.72.
With G17C C20A A43C C123A U129G the figure was -3.55.
For the variant A18C C124G G128U, the “polymerase ribozyme fitness (log ratio)” value was -3.83.
With A18C G69U C115U the figure was -1.28; with A18C A46U G71A A84G G117C, -7.1.
As for A18G A27G, the figure is -4.94.
As for G17U C40G C89G, the figure is -6.24.
G17U U133G: the “polymerase ribozyme fitness (log ratio)” value was -2.64.
With A18C U55A G57C C70G C124A the figure was -6.54; with G17U G45A G60C, -2.05.
As for G17A C62A, the figure is -4.08; as for G17A C62U, -3.04; as for A18C C73G C114U, -3.9.
A18C C49G: the “polymerase ribozyme fitness (log ratio)” value was -3.27.
With G17A A84C U87A U96G the figure was -4.16; with G17A G127C, -4.54.
With G17U G69A C114G the figure was -5.6; with A18G A37G A66U C94U G113C G117A, -4.01.
With A16U G45C C53G A90G G113A A121C the figure was -4.47; with G17U G42A, -3.86.
With A18C U131A, the “polymerase ribozyme fitness (log ratio)” value was -2.1.
With G17A C56G the figure was -3.4; with G17A A18C C22U G35A C70A C79G A90G C99A C124G, -5.86.
Consider A18C A50U G60U C102A A119G G127U, for which the “polymerase ribozyme fitness (log ratio)” value is -7.23.
With G17U U106A the figure was -2.49; with A18C G127C, -3.02; with A18C G60A C89G U106A, -3.6.
For G17A A37U C115U, the “polymerase ribozyme fitness (log ratio)” value is 0.842.
As for A18C G61A C85G, the figure is -3.25; as for A16U G63A, -2.16.
As for A18C U54G U87G A121U, the figure is -0.603; as for G17U A27U G61U, -6.16.
With G17U G71U U132A the figure was -2.7; with A16U U81G, -5.13.
Take A16U U81A: the “polymerase ribozyme fitness (log ratio)” value was -2.6.
As for G17C C28A G63A G120C C123G, the figure is -6.85; as for A18C A121C, -1.86; as for A16U G52U U78C A111C U126G G127U, -3.36.
With A18C C49A G60U U106A A111C the figure was -5.37.
As for A18C U87C, the figure is -2.11; as for A18C U59A C89U G122A, -3.38.
With G17C A26C A29G C62A G63U, the “polymerase ribozyme fitness (log ratio)” value was -5.05.
As for A16U G71U U106G A111U, the figure is -5.64; as for A16U G113A C123U, -4.77; as for G17A G39U, -3.39.
With G17U G60U U81A, the “polymerase ribozyme fitness (log ratio)” value is -3.3.
With A18C G61C the figure was -2.87; with G17U U81A, -3.22; with A18C C89G U106A, -2.89.
With A18C A43C G113A the figure was -2.81; with G17U G61A C72A C89A, -4.9; with G17A C79G C124G U125A, -4.5.
With G17U G44A C62U A83U G117A the figure was -5.24; with G17C G48U G60A C89G C102A C114A, -6.76; with G17A C62G G63A A74C A90C U109G, -5.9.
Take A18C G69C U133A: the “polymerase ribozyme fitness (log ratio)” value was -4.77.
A16U U133G: the “polymerase ribozyme fitness (log ratio)” value was -2.05.
For A18C U125G, the “polymerase ribozyme fitness (log ratio)” value was -3.63.
As for G17U G44C G57U U112C G135A, the figure is -1.76; as for A16U G110A U132C, -2.1.
As for A18C G47U, the figure is -4.12; as for A18C A43G C72G C114U U129C, -4.8; as for A18C C101A C123U G127A, -4.43.
As for G17A C114A, the figure is -5.13.
As to A18C C56A C73U C86U A90G U106A A108C U112A, the “polymerase ribozyme fitness (log ratio)” value is -5.34.
As for G17A U129A, the figure is -4.6.
